B1: Protein boule-like (Homo sapiens), Q8N9W6 (parent)
chain: MQTDSLSPSPNPVSPVPLNNPTSAPRYGTVIPNRIFVGGIDFKTNESDLRKFFSQYGSVKEVKIVNDRAGVSKGYGFVTFETQEDAQKILQEAEKLNYKDKKLNIGPAIRKQQVGIPRSSIMPAAGTMYLTTSTGYPYTYHNGVAYFHTPEVTSVPPPWPSRSVCSSPVMVAQPIYQQPAYHYQATTQYLPGQWQWSVPQPSASSAPFLYLQPSEVIYQPVEIAQDGGCVPPPLSLMETSVPEPYSDHGVQATYHQVYAPSAITMPAPVMQPEPIKTVWSIHY
partner: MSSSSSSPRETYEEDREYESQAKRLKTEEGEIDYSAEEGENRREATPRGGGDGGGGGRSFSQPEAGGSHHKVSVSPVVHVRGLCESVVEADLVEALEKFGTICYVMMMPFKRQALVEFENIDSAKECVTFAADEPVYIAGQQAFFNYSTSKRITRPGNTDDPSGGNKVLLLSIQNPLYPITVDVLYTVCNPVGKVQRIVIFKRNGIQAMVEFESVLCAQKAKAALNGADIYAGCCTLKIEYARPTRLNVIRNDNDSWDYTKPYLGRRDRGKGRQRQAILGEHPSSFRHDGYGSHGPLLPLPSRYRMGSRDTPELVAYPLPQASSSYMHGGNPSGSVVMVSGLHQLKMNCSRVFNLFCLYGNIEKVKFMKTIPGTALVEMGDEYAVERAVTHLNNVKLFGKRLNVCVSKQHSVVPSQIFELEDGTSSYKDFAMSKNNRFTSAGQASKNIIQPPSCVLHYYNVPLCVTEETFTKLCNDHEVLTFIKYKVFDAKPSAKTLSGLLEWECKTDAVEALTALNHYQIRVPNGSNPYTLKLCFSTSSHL
B2: Dynein light chain Tctex-type 3 (Homo sapiens), P51808 (parent)
chain: MEEYHRHCDEVGFNAEEAHNIVKECVDGVLGGEDYNHNNINQWTASIVEQSLTHLVKLGKAYKYIVTCAVVQKSAYGFHTASSCFWDTTSDGTCTVRWENRTMNCIVNVFAIAIVL
B3: Keratin-associated protein 5-9 (Homo sapiens), P26371 (parent)
chain: MGCCGCSGGCGSSCGGCDSSCGSCGSGCRGCGPSCCAPVYCCKPVCCCVPACSCSSCGKRGCGSCGGSKGGCGSCGCSQCSCCKPCCCSSGCGSSCCQCSCCKPYCSQCSCCKPCCSSSGRGSSCCQSSCCKPCCSSSGCGSSCCQSSCCKPCCSQSRCCVPVCYQCKI
partner: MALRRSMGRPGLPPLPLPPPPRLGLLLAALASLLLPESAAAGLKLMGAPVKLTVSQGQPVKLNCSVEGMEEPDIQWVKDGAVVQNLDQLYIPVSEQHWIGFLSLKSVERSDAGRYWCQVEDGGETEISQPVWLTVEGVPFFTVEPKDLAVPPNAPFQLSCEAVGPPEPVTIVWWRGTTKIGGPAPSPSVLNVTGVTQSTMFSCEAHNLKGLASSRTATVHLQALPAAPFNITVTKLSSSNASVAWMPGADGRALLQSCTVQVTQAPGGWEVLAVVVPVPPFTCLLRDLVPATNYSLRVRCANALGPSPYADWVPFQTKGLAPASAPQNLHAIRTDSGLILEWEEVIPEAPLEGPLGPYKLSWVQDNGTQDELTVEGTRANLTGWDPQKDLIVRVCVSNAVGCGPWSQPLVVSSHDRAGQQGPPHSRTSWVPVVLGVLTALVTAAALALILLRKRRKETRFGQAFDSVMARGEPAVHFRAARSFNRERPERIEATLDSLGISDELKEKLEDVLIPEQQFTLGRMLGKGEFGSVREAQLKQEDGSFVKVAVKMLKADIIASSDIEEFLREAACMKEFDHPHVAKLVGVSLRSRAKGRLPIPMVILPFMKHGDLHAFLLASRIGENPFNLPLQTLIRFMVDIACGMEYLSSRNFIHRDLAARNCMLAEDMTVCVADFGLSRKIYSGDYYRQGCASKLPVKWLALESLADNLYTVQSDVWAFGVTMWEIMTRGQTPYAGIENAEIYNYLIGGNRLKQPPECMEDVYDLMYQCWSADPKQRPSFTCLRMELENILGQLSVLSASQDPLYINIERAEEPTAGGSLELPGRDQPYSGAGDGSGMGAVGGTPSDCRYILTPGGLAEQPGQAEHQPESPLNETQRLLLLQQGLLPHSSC
B4: Aflatoxin B1 aldehyde reductase member 2 (Homo sapiens), O43488 (parent)
chain: MLSAASRVVSRAAVHCALRSPPPEARALAMSRPPPPRVASVLGTMEMGRRMDAPASAAAVRAFLERGHTELDTAFMYSDGQSETILGGLGLGLGGGDCRVKIATKANPWDGKSLKPDSVRSQLETSLKRLQCPQVDLFYLHAPDHGTPVEETLHACQRLHQEGKFVELGLSNYASWEVAEICTLCKSNGWILPTVYQGMYNATTRQVETELFPCLRHFGLRFYAYNPLAGGLLTGKYKYEDKDGKQPVGRFFGNSWAETYRNRFWKEHHFEAIALVEKALQAAYGASAPSVTSAALRWMYHHSQLQGAHGDAVILGMSSLEQLEQNLAATEEGPLEPAVVDAFNQAWHLVAHECPNYFR
partner: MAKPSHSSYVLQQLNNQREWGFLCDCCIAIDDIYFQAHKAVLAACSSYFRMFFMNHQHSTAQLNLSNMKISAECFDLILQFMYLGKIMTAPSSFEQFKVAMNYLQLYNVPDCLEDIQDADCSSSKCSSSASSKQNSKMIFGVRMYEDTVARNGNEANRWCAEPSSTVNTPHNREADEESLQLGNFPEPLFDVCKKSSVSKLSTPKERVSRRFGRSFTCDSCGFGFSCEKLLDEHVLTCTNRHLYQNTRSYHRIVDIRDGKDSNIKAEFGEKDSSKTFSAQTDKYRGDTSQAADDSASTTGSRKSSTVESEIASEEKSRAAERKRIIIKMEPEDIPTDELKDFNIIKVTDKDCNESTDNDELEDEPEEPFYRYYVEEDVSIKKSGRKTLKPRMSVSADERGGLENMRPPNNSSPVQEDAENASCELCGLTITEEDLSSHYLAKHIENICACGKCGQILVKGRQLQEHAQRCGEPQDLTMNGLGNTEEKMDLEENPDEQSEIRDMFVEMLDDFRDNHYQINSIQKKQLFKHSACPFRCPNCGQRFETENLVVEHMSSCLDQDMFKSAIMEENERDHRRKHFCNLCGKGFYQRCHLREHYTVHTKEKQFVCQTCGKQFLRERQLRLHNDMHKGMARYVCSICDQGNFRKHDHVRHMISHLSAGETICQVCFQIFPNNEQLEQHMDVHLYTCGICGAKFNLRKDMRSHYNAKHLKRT
B5: Protein transport protein (Homo sapiens), Q15437 (parent)
chain: MATYLEFIQQNEERDGVRFSWNVWPSSRLEATRMVVPLACLLTPLKERPDLPPVQYEPVLCSRPTCKAVLNPLCQVDYRAKLWACNFCFQRNQFPPAYGGISEVNQPAELMPQFSTIEYVIQRGAQSPLIFLYVVDTCLEEDDLQALKESLQMSLSLLPPDALVGLITFGRMVQVHELSCEGISKSYVFRGTKDLTAKQIQDMLGLTKPAMPMQQARPAQPQEHPFASSRFLQPVHKIDMNLTDLLGELQRDPWPVTQGKRPLRSTGVALSIAVGLLEGTFPNTGARIMLFTGGPPTQGPGMVVGDELKIPIRSWHDIEKDNARFMKKATKHYEMLANRTAANGHCIDIYACALDQTGLLEMKCCANLTGGYMVMGDSFNTSLFKQTFQRIFTKDFNGDFRMAFGATLDVKTSRELKIAGAIGPCVSLNVKGPCVSENELGVGGTSQWKICGLDPTSTLGIYFEVVNQHNTPIPQGGRGAIQFVTHYQHSSTQRRIRVTTIARNWADVQSQLRHIEAAFDQEAAAVLMARLGVFRAESEEGPDVLRWLDRQLIRLCQKFGQYNKEDPTSFRLSDSFSLYPQFMFHLRRSPFLQVFNNSPDESSYYRHHFARQDLTQSLIMIQPILYSYSFHGPPEPVLLDSSSILADRILLMDTFFQIVIYLGETIAQWRKAGYQDMPEYENFKHLLQAPLDDAQEILQARFPMPRYINTEHGGSQARFLLSKVNPSQTHNNLYAWGQETGAPILTDDVSLQVFMDHLKKLAVSSAC
partner: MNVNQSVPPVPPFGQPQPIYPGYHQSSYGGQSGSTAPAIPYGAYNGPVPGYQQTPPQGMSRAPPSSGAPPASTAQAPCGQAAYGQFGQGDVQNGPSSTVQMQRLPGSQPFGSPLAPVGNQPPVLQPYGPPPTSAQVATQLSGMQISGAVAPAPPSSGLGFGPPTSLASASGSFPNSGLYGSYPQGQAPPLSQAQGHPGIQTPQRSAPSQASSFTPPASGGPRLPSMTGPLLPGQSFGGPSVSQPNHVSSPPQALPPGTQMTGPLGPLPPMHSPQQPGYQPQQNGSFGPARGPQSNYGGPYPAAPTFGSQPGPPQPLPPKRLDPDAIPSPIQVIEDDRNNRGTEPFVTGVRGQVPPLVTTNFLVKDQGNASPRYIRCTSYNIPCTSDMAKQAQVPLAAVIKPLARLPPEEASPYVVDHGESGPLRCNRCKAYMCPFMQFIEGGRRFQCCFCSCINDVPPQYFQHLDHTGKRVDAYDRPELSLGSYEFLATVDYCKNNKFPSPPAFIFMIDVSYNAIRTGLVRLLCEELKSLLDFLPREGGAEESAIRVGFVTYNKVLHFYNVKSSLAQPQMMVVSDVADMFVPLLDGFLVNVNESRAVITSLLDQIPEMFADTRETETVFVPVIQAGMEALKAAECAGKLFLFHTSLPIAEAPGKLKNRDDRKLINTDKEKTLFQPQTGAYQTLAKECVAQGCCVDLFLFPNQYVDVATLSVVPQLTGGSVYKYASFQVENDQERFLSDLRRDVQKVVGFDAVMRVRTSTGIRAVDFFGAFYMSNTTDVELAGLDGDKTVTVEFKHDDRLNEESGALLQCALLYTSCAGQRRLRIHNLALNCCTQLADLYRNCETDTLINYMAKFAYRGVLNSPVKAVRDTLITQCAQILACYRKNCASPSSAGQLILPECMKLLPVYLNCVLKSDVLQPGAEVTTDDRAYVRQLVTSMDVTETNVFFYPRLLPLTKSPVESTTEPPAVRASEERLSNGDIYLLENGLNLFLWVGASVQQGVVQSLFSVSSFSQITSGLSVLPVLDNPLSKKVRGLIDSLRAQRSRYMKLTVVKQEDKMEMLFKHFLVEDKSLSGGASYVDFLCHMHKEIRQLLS
B6: Tubby-related protein 3 (Homo sapiens), O75386 (parent)
chain: MEASRCRLSPSGDSVFHEEMMKMRQAKLDYQRLLLEKRQRKKRLEPFMVQPNPEARLRRAKPRASDEQTPLVNCHTPHSNVILHGIDGPAAVLKPDEVHAPSVSSSVVEEDAENTVDTASKPGLQERLQKHDISESVNFDEETDGISQSACLERPNSASSQNSTDTGTSGSATAAQPADNLLGDIDDLEDFVYSPAPQGVTVRCRIIRDKRGMDRGLFPTYYMYLEKEENQKIFLLAARKRKKSKTANYLISIDPVDLSREGESYVGKLRSNLMGTKFTVYDRGICPMKGRGLVGAAHTRQELAAISYETNVLGFKGPRKMSVIIPGMTLNHKQIPYQPQNNHDSLLSRWQNRTMENLVELHNKAPVWNSDTQSYVLNFRGRVTQASVKNFQIVHKNDPDYIVMQFGRVADDVFTLDYNYPLCAVQAFGIGLSSFDSKLACE
B7: Nucleoplasmin-3 (Homo sapiens), O75607 (parent)
chain: MAAGTAAALAFLSQESRTRAGGVGGLRVPAPVTMDSFFFGCELSGHTRSFTFKVEEEDDAEHVLALTMLCLTEGAKDECNVVEVVARNHDHQEIAVPVANLKLSCQPMLSLDDFQLQPPVTFRLKSGSGPVRITGRHQIVTMSNDVSEEESEEEEEDSDEEEVELCPILPAKKQGGRP
partner: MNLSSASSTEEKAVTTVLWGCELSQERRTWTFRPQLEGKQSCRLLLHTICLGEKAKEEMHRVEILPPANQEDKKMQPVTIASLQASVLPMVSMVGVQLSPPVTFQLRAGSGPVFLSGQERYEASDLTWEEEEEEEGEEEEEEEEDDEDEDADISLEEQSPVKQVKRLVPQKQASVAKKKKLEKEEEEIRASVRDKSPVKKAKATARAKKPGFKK
B8: Mevalonate kinase (Homo sapiens), Q03426 (parent)
chain: MLSEVLLVSAPGKVILHGEHAVVHGKVALAVSLNLRTFLRLQPHSNGKVDLSLPNIGIKRAWDVARLQSLDTSFLEQGDVTTPTSEQVEKLKEVAGLPDDCAVTERLAVLAFLYLYLSICRKQRALPSLDIVVWSELPPGAGLGSSAAYSVCLAAALLTVCEEIPNPLKDGDCVNRWTKEDLELINKWAFQGERMIHGNPSGVDNAVSTWGGALRYHQGKISSLKRSPALQILLTNTKVPRNTRALVAGVRNRLLKFPEIVAPLLTSIDAISLECERVLGEMGEAPAPEQYLVLEELIDMNQHHLNALGVGHASLDQLCQVTRARGLHSKLTGAGGGGCGITLLKPGLEQPEVEATKQALTSCGFDCLETSIGAPGVSIHSATSLDSRVQQALDGL

Variants of: B1
Details: with hnrll_human HNRNPLL

Row | Variant | effect of a mutation on the interaction
1 | S9Y | with no effect

Variants of: B2
Details: with dc1i2_human DYNC1I2, Q13409
dc1i2_human DYNC1I2, Q13409, sequence (Q13409 whole entry): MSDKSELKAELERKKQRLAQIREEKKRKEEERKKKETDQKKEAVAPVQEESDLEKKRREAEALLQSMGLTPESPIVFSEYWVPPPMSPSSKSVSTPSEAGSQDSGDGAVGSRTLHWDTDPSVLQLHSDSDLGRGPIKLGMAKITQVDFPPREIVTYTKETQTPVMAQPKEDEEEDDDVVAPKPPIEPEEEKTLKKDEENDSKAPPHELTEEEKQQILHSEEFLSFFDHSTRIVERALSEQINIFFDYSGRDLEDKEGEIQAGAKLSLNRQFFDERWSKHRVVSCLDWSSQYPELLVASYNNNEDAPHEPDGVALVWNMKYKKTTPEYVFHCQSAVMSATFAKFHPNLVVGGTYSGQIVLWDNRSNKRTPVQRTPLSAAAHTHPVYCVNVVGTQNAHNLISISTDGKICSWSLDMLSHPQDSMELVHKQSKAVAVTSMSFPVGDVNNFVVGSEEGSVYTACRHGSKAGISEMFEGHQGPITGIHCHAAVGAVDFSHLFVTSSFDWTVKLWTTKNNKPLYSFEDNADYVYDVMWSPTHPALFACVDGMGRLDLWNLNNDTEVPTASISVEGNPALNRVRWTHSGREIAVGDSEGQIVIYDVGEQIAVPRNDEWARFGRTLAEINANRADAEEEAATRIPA

Row | Variant | effect of a mutation on the interaction
2 | A75T | with no effect

Variants of: B3
Details: with tyro3_human TYRO3, Q06418

Row | Variant | effect of a mutation on the interaction
3 | Y40C | disrupting interaction strength

Variants of: B4
Details: with zbtb1_human ZBTB1, Q9Y2K1

Row | Variant | effect of a mutation on the interaction
4 | A142T | disrupting interaction strength

Variants of: B5
Details: with sc24c_human SEC24C

Row | Variant | effect of a mutation on the interaction
5 | V426I | with no effect

Variants of: B6
Details: with maga6_human MAGEA6, P43360
maga6_human MAGEA6, P43360, sequence (P43360 whole entry): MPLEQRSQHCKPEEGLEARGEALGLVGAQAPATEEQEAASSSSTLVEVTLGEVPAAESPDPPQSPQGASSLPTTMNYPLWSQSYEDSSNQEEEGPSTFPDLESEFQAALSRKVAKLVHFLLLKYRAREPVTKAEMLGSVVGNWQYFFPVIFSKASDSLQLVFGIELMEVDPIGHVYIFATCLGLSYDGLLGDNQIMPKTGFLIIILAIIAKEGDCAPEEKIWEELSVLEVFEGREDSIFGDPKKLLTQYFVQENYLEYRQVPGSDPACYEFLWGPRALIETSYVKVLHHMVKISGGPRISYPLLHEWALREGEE

Row | Variant | effect of a mutation on the interaction
6 | A296E | with no effect
7 | G267S | disrupting interaction strength

Variants of: B6
Details: with anr54_human ANKRD54, Q6NXT1
anr54_human ANKRD54, Q6NXT1, sequence (Q6NXT1 whole entry): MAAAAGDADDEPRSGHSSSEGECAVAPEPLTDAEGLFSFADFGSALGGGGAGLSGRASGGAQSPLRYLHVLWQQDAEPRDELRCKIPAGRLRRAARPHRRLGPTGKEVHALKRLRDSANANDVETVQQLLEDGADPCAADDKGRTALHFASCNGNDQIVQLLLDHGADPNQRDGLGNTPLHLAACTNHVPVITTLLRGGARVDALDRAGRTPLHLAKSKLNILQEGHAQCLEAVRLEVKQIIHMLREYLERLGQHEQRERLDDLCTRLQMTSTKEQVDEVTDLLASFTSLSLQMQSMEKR

Row | Variant | effect of a mutation on the interaction
8 | G267S | with no effect

Variants of: B7
Details: with npm2_human NPM2, Q86SE8

Row | Variant | effect of a mutation on the interaction
9 | E149K | with no effect

Variants of: B8
Details: with ews_human EWSR1, Q01844
ews_human EWSR1, Q01844, sequence (Q01844 whole entry): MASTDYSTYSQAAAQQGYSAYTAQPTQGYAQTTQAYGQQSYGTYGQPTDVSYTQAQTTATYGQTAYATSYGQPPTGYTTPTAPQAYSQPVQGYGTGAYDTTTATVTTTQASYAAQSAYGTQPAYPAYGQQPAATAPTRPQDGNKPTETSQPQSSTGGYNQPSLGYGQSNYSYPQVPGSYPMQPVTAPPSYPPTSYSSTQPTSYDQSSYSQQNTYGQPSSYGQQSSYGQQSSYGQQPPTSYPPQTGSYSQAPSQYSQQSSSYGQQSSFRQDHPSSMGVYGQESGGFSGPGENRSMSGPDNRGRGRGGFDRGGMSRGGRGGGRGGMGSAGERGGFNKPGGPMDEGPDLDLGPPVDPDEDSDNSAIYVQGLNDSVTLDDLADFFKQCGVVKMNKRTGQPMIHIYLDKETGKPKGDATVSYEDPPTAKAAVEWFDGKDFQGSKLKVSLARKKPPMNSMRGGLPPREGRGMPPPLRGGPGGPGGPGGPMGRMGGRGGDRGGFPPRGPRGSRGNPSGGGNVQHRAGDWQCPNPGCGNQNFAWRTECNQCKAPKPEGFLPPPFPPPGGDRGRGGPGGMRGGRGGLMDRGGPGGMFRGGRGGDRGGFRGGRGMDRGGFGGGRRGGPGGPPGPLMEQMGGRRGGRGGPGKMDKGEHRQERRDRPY

Row | Variant | effect of a mutation on the interaction
10 | H20Q | with no effect
11 | N301T | with no effect

Reference: IntAct's records for PubMed 31515488
